Here are results for two substances from patent US5591825A, “Interleukin 4 signal transducers” (Tularik, Inc., priority 1994, dated 1997).

Non-standard residues stand in square brackets, D forms with d. pY = N[C@@H](Cc1ccc(OP(=O)(O)O)cc1)C(=O)O

This test concerns the target T1, IL-4 Stat (Homo sapiens, UniProt P42226).
T1 construct: Samples of nuclear extract prepared from IL-4 induced Thp-1 cells were incubated with individual phosphopeptides; endogenous in cells; host or cells: Thp-1 cells, IL-4 induced, nuclear extract
T1 sequence (P42226 1-847): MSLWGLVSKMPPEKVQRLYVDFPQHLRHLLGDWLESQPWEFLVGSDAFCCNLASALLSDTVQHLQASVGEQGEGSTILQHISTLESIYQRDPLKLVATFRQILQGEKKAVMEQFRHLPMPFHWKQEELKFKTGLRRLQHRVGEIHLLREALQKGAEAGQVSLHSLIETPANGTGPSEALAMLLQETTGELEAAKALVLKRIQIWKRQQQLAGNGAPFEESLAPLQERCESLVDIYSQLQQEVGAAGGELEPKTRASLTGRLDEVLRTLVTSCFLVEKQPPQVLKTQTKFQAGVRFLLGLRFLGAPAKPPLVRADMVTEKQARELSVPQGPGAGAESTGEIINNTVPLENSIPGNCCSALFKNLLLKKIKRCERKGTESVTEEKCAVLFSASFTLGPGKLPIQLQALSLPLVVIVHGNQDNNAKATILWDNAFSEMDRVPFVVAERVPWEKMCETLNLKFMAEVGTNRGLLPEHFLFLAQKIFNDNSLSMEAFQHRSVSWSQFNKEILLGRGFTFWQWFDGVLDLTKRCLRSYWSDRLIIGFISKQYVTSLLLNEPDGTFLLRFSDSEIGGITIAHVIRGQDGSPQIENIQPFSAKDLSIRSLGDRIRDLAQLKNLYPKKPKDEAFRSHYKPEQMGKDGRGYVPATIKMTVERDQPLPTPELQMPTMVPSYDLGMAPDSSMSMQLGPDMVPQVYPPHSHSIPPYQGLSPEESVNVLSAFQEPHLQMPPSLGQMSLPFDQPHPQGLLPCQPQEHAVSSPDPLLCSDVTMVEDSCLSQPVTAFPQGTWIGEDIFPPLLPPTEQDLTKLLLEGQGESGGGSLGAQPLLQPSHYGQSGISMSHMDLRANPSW
Briefly: Gel mobility shift assay of IL-4 Stat DNA binding in nuclear extract of IL-4 induced Thp-1 cells. The test is classed as biochemical. The conditions noted are these: nuclear extract from IL-4 induced Thp-1 cells.

For the substance “NH2-ASS GEE GYKP FQD LI(SEQ ID NO:11)-COOH (H-ASSGEEG[pY]KPFQDLI-OH; SMILES CC[C@H](C)[C@H](NC(=O)[C@H](CC(C)C)NC(=O)[C@H](CC(=O)O)NC(=O)[C@H](CCC(N)=O)NC(=O)[C@H](Cc1ccccc1)NC(=O)[C@@H]1CCCN1C(=O)[C@H](CCCCN)NC(=O)[C@H](Cc1ccc(OP(=O)(O)O)cc1)NC(=O)CNC(=O)[C@H](CCC(=O)O)NC(=O)[C@H](CCC(=O)O)NC(=O)CNC(=O)[C@H](CO)NC(=O)[C@H](CO)NC(=O)[C@H](C)N)C(=O)O)”, the “inhibitory effect on DNA binding by activated IL-4 Stat” value is listed as “inhibitory”.

On to “NH2-GPP GEA GYKA FSS LL(SEQ ID NO:10)-COOH (H-GPPGEAG[pY]KAFSSLL-OH; SMILES CC(C)C[C@H](NC(=O)[C@H](CC(C)C)NC(=O)[C@H](CO)NC(=O)[C@H](CO)NC(=O)[C@H](Cc1ccccc1)NC(=O)[C@H](C)NC(=O)[C@H](CCCCN)NC(=O)[C@H](Cc1ccc(OP(=O)(O)O)cc1)NC(=O)CNC(=O)[C@H](C)NC(=O)[C@H](CCC(=O)O)NC(=O)CNC(=O)[C@@H]1CCCN1C(=O)[C@@H]1CCCN1C(=O)CN)C(=O)O)”, for which the “inhibitory effect on DNA binding by activated IL-4 Stat” value is recorded as “inhibitory”.
